Results from US20250263489A1 (TEIJIN PHARMA, published 2025).
Where a chain is given by its changes, count along the chain named.

B1: human chimeric IGF11-16 antibody (antibody, V domains shown)
VH: QIQLQQPGAELVKPGASVKLSCKAPGYTFTSYWMHWVKQRPGQGLEWIGETNPSNSVTNYNEKFKSKATLTVDKSSSTAYMQLSSLTSEDSAVYYCTIGRGRGFAYWGQGTLVTVSA
VL: DIQMNQSPSSLSASLGDTITITCRASQNINFWLSWCQQKPGNIPKLLIYKASNLHTGVPSRFSGSGSGTDFTLTISSLQPEDIATYYCLQGQSYPYTFGGGTKLEIK
notes: also called Chimera; human mouse chimeric antibody IGF11-16
B2: IGF11-16 with alanine substitution of W at position 32 (CDR-L1) (antibody, V domains shown)
VH: B1 VH
VL: B1 VL with W32A
B3: humanized antibody hIGF13_PS (antibody, V domains shown)
VH: QVQLVQSGAEVKKPGASVKVSCKAPGYTFTSYWMHWVRQAPGQGLEWMGETNPSSSVTNYAQKFQGRVTLTVDTSTSTAYMELSSLRSEDTATYYCTIGRGRGFAYWGQGTLVTVSS
VL: B1 VL with N5T, L15V, T18R, I19V, C36Y, N42K, I43V, I83V
notes: also called VL23/VH13_PS
B4: humanized antibody hIGF25_PS (antibody, V domains shown)
VH: B3 VH with T93V
VL: B1 VL with N5T, L15V, T18R, I19V, C36Y, N42K, I43V, I83V
notes: also called VL23/VH25_PS

Assays:
[1] = molecular target: T1, IGF-1 receptor on the cells of the PathHunter IGF1R Functional Assay (DiscoverX) (UniProt P08069 31-1367); test: cell-based or functional assay
T1 sequence (P08069 31-1367): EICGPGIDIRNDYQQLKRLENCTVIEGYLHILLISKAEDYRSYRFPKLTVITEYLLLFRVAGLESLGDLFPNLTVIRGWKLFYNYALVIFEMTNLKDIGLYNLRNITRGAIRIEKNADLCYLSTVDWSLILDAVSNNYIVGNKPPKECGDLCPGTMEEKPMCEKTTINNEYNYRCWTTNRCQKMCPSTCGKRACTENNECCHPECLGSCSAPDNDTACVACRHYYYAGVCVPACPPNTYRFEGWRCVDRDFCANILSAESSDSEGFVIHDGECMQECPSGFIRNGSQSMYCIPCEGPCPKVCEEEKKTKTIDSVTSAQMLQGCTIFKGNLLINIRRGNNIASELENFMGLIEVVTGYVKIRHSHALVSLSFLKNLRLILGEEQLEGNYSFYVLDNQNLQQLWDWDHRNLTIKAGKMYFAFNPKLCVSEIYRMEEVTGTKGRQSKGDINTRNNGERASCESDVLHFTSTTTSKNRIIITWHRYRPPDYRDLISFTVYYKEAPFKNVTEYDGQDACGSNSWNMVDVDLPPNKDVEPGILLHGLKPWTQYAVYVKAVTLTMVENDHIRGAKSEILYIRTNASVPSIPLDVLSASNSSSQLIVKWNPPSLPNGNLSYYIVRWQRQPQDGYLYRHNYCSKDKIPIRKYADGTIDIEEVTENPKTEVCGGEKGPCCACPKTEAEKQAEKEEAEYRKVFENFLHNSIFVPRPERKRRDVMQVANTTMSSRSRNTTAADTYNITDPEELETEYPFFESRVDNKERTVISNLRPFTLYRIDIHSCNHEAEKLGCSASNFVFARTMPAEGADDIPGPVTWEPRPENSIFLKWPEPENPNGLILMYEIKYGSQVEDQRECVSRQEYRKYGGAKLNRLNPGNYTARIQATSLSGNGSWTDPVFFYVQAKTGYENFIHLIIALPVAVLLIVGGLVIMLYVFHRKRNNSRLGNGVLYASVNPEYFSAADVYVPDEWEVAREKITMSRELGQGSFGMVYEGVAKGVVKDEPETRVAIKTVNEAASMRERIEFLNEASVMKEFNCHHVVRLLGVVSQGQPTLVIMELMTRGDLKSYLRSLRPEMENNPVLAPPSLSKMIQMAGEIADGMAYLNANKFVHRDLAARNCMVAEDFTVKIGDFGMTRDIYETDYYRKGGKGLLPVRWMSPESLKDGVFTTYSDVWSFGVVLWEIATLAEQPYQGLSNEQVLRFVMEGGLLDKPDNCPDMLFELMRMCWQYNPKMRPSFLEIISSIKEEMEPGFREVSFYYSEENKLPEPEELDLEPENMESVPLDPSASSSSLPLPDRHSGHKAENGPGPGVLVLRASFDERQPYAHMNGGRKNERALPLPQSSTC

[2] = molecular target: T2, rabbit IGF-1 receptor expressed on HEK293T cells (rabbit); test: cell-based ELISA on fixed HEK293T cells expressing the IGF-1R, antibody at 5 nM, anti-human IgG HRP, absorbance 450 nm minus 650 nm
T2 sequence (chain, as listed by the source limits assumed): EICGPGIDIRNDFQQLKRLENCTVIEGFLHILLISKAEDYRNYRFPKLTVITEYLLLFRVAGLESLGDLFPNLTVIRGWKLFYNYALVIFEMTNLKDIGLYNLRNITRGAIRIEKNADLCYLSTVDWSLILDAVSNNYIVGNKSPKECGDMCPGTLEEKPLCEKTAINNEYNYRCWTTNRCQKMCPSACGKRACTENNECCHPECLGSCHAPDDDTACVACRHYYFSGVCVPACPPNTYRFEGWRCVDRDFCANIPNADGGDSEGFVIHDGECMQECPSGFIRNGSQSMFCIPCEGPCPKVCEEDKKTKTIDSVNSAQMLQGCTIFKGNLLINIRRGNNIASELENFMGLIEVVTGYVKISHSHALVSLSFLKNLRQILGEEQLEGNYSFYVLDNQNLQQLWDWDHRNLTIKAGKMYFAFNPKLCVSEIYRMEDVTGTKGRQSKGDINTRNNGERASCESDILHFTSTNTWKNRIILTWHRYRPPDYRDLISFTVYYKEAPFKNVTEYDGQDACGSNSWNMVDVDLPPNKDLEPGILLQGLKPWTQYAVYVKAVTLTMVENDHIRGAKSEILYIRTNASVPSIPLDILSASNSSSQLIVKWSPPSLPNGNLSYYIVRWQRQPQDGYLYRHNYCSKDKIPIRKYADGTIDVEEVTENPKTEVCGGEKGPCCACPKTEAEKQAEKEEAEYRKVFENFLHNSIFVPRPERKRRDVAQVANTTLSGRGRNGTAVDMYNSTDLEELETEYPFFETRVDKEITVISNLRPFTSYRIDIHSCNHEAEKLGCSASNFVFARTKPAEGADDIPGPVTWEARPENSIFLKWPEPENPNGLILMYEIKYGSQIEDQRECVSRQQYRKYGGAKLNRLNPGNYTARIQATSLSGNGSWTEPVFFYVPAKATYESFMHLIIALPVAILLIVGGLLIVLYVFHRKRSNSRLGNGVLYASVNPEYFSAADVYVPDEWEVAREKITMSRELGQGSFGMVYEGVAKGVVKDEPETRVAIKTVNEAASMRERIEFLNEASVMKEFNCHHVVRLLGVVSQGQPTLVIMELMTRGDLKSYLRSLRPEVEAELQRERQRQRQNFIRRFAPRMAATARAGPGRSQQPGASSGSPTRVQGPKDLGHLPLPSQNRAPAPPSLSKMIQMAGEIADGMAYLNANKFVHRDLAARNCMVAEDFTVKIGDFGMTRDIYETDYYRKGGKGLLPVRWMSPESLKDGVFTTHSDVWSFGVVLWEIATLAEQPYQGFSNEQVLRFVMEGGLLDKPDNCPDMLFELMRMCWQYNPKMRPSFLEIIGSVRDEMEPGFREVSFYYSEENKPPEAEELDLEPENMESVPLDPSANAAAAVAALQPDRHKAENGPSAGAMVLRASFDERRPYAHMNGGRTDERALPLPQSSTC
Description: (§1) HEK293T cells were transfected by lipofection method with pEF1 expression vectors (Thermo Fisher) incorporated with the IGF-1 receptor genes of rabbit (SEQ ID NO: 76), guinea pig (SEQ ID NO: 78), rat (SEQ ID NO: 80) and mouse SEQ ID NO: 82). The transfected HEK293T cells were allowed to grow overnight or longer after the lipofection, and were then added to a 96-well plate (poly-D-lysine coated) at 4×10⁴ cells/well. The cells were then fixed in 10% buffered formalin (Mildform® 10NM, Wako) and blocked with phosphate buffer containing 3% BSA before used for ELISA.
(§2) ELISA was carried out as follows. 100 μL of each humanized antibody solution prepared at 5 nM in 1% BSA/1% FBS/PBS was added to each well, and reacted at 37° C. for about 1 hour. Anti-human IgG antibody HRP conjugate solution prepared at each concentration in 1% BSA/1% FBS/PBS was added to each well at 100 μL, reacted at 37° C. for about 1 hour, and washed three times with washing solution. […] After about 30 minutes, 100 μL of 1M sulfuric acid was added to each well, the absorbances at 450 and 650 nm were measured, and the difference between the absorbances at 450 nm and at 650 nm was calculated. The calculated difference was compared with the difference between the absorbances at 450 nm and at 650 nm for HEK293T cells without IGF-1 receptor gene (Mock) to analyze the binding activity.

[3] = molecular target: T3, guinea pig IGF-1 receptor expressed on HEK293T cells (guinea pig, UniProt P08069 31-1367 (human entry)); test: as above
T3 sequence (P08069 other isoform, or with tags, fused parts or gaps limits assumed): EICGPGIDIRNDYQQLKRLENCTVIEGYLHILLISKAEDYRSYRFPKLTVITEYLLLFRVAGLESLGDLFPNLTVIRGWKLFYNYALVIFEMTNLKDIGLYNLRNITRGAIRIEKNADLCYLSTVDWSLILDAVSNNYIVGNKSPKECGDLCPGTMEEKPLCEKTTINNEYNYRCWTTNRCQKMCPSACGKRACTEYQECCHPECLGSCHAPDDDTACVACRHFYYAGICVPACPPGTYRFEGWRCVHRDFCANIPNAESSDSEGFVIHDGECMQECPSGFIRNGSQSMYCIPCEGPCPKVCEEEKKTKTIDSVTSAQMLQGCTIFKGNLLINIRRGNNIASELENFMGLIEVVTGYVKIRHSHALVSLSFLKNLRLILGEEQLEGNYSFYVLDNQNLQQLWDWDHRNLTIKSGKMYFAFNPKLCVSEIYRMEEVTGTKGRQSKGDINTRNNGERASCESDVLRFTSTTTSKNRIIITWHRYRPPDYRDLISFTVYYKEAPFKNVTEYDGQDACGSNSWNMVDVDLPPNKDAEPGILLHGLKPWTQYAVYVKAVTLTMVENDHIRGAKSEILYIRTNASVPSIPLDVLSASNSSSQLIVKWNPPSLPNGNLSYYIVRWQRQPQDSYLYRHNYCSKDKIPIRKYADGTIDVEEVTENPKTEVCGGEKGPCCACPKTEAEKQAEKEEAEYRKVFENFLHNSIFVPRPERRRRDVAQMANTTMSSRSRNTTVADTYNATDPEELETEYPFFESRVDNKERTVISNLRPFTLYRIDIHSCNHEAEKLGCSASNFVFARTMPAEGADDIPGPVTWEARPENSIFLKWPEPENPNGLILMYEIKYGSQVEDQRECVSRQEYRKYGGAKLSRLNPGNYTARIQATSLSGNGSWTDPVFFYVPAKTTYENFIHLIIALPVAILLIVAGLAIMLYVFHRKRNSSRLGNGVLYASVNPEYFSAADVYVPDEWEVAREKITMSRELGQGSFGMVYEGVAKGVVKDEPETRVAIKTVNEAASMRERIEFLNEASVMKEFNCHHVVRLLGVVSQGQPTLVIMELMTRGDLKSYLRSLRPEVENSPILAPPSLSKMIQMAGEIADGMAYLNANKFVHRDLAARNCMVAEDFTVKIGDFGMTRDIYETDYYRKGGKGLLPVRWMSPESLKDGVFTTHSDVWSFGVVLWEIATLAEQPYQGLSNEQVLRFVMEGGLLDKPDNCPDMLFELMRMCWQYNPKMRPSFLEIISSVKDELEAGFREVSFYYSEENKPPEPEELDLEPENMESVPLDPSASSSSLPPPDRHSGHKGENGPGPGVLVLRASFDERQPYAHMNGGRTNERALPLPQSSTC
Description: as §1, §2

[4] = molecular target: T1, IGF-1 receptor on the cells of the …; test: cell-based or functional assay; remark: listed apart in the source
[5] = molecular target: crab-eating macaque IGF-1 receptor expressed on HEK293T cells (crab-eating macaque); test: cell-based ELISA on fixed HEK293T cells expressing the receptor, antibody at 5 nM
Sequence of crab-eating macaque IGF-1 receptor expressed on HEK293T cells (crab-eating macaque) (chain, as listed by the source limits assumed): as the sequence (P08069 31-1367) above, with T188A, S471W, A729V, P738L, E1238D counted along it

[6] = molecular target: T2, rabbit IGF-1 receptor expressed on …; test: as above
[7] = molecular target: T4, human IGF-1 receptor expressed on HEK293T cells (human, UniProt P08069 31-1367); test: as above
T4 construct: Cells fixed in formalin before the ELISA; also called human IGF-1 receptor-expressing cells
T4 sequence (P08069 31-1367 limits assumed): as the sequence (P08069 31-1367) above

[8] = molecular target: T3, guinea pig IGF-1 receptor expressed on …; test: as above
[9] = molecular target: rat IGF-1 receptor expressed on HEK293T cells (rat, UniProt P24062 31-1370); test: cell-based ELISA on fixed HEK293T cells expressing the receptor, compared with Mock cells
Description: as §1
(§3) ELISA was carried out as follows. 100 μL of each humanized antibody solution prepared at 5 nM in 1% BSA/1% FBS/PBS was added to each well, and reacted at 37° C. for about 1 hour. Anti-human IgG antibody HRP conjugate solution prepared at each concentration in 1% BSA/1% FBS/PBS was added to each well at 100 μL, reacted at 37° C. for about 1 hour, and washed three times with washing solution. The reaction was initiated by adding 100 μL of substrate (TMB) to each well. After about 30 minutes, 100 μL of 1M sulfuric acid was added to each well, the absorbances at 450 and 650 nm were measured, and the difference between the absorbances at 450 nm and at 650 nm was calculated. The calculated difference was compared with the difference between the absorbances at 450 nm and at 650 nm for HEK293T cells without IGF-1 receptor gene (Mock) to analyze the binding activity.

[10] = molecular target: mouse IGF-1 receptor expressed on HEK293T cells (mouse, UniProt Q60751 31-1373); test: as above
Description: as §1, §3

Binder	Signal intensity (ratio to IGF11-16) at 16.7 nM, PathHunter [1]	binding result [2]	binding result [3]	Signal activation EC50 vs IGF11-16, PathHunter [4]	Signal activation Emax vs IGF11-16, PathHunter [4]	binding activity, fold compared to Mock cells [5]	binding activity, fold compared to Mock cells [6]	binding activity, fold compared to Mock cells [7]	binding activity, fold compared to Mock cells [8]	binding result [9]	binding result [10]
B1	1 ratio to human chimeric IGF11-16	binds	binds								
B2				9.5 ratio vs IGF11-16	1.5 ratio vs IGF11-16						
B3						~2 fold	~2 fold	~2 fold	~2 fold	no binding (tested: 5 nM)	no binding (tested: 5 nM)
B4						~2 fold	~2 fold	~2 fold	~2 fold	no binding (tested: 5 nM)	no binding (tested: 5 nM)
